From patent US20240116997A1

Columns and labels:
Assay in all cases: cell-based or functional assay
[1] = target: IL-18 polypeptide SEQ ID NO: 52 (E06K, T63A) (human) (UniProt Q14116)
[2] = target: C155 (V11I, C38A, D40A, K53A, C76A, C127A) (human) (UniProt Q14116)
[3] = target: IL-18 polypeptide SEQ ID NO: 41 (K53A, S55A) (human) (UniProt Q14116)
[4] = target: IL-18 polypeptide SEQ ID NO: 42 (E06K, K53A, S55A, T63A) (human) (UniProt Q14116)
[5] = target: IL-18 polypeptide SEQ ID NO: 50 (E06K, K53A, T63A) (human) (UniProt Q14116)
Chain of IL-18 polypeptide SEQ ID NO: 50 (E06K, K53A, T63A) (human) (Q14116 37-193 E42K/K89A/T99A): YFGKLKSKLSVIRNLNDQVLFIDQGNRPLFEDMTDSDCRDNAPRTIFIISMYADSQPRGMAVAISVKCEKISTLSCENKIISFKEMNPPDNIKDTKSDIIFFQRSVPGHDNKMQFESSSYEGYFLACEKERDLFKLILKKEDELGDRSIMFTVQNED

[6] = target: C163 (V11I, C38A, C76A, Q103K, C127A) (human) (UniProt Q14116)
Chain of C163 (V11I, C38A, C76A, Q103K, C127A) (human) (Q14116 37-193 V47I/C74A/C112A/Q139K/C163A): as the sequence (Q14116 37-193 E42K/K89A/T99A) above, with K6E, V11I, C38A, A53K, A63T, C76A, Q103K, C127A counted along it

[7] = target: C166 (V11I, C38A, S55T, C76A, C127A) (human) (UniProt Q14116)
Chain of C166 (V11I, C38A, S55T, C76A, C127A) (human) (Q14116 37-193 V47I/C74A/S91T/C112A/C163A): as the sequence (Q14116 37-193 E42K/K89A/T99A) above, with K6E, V11I, C38A, A53K, S55T, A63T, C76A, C127A counted along it

[8] = target: IL-18 polypeptide SEQ ID NO: 35 (Y01G, F02A, E06K, M51G, K53A, D54A, S55A, T63A) (human) (UniProt Q14116)
[9] = target: IL-18 polypeptide SEQ ID NO: 34 (E06K, K53A, S55A) (human) (UniProt Q14116)
Chain of IL-18 polypeptide SEQ ID NO: 34 (E06K, K53A, S55A) (human) (Q14116 37-193 E42K/K89A/S91A): as the sequence (Q14116 37-193 E42K/K89A/T99A) above, with S55A, A63T counted along it

[10] = target: C161 (K8R, V11I, C38A, C76A, Q103E, C127A) (human) (UniProt Q14116)
Chain of C161 (K8R, V11I, C38A, C76A, Q103E, C127A) (human) (Q14116 other isoform, or with tags, fused parts or gaps V11I C38A C76A Q103E C127A V11I C38A C76A Q103E C127A): as the sequence (Q14116 37-193 E42K/K89A/T99A) above, with K6E, K8R, V11I, C38A, A53K, A63T, C76A, Q103E, C127A counted along it

[11] = target: C151 (V11I, D35A, C38A, K53A, C76A, C127A) (human) (UniProt Q14116)
Chain of C151 (V11I, D35A, C38A, K53A, C76A, C127A) (human) (Q14116 37-193 V47I/D71A/C74A/K89A/C112A/C163A): as the sequence (Q14116 37-193 E42K/K89A/T99A) above, with K6E, V11I, D35A, C38A, A63T, C76A, C127A counted along it

[12] = target: C168 (V11I, C38A, C76A, S105K, C127A) (human) (UniProt Q14116)
[13] = target: C144 (V11I, C38A, K53A, T63A, C76A, C127A) (human) (UniProt Q14116)
Chain of C144 (V11I, C38A, K53A, T63A, C76A, C127A) (human) (Q14116 37-193 V47I/C74A/K89A/T99A/C112A/C163A): as the sequence (Q14116 37-193 E42K/K89A/T99A) above, with K6E, V11I, C38A, C76A, C127A counted along it

[14] = target: IL-18 polypeptide SEQ ID NO: 57 (E6K, C38S, K53A) (human) (UniProt Q14116)
Chain of IL-18 polypeptide SEQ ID NO: 57 (E6K, C38S, K53A) (human) (Q14116 other isoform, or with tags, fused parts or gaps C38S K53A C38S K53A): as the sequence (Q14116 37-193 E42K/K89A/T99A) above, with C38S, A63T counted along it

[15] = target: C154 (V11I, E31A, D37A, C38A, K53A, C76A, C127A) (human) (UniProt Q14116)
[16] = target: C160 (V11I, C38A, K53A, C76A, D110A, C127A) (human) (UniProt Q14116)
Chain of C160 (V11I, C38A, K53A, C76A, D110A, C127A) (human) (Q14116 37-193 V47I/C74A/K89A/C112A/D146A/C163A): as the sequence (Q14116 37-193 E42K/K89A/T99A) above, with K6E, V11I, C38A, A63T, C76A, D110A, C127A counted along it

[17] = target: C158 (V11I, C38A, K53A, C76A, G108A, C127A) (human) (UniProt Q14116)
Chain of C158 (V11I, C38A, K53A, C76A, G108A, C127A) (human) (Q14116 37-193 V47I/C74A/K89A/C112A/G144A/C163A): as the sequence (Q14116 37-193 E42K/K89A/T99A) above, with K6E, V11I, C38A, A63T, C76A, G108A, C127A counted along it

[18] = target: IL-18 polypeptide SEQ ID NO: 9 (E6K, C38A, K53A, C68A, D98C) (human) (UniProt Q14116)
[19] = target: C143 (V11I, C38A, K53A, C76A, C127A) (human) (UniProt Q14116)
Chain of C143 (V11I, C38A, K53A, C76A, C127A) (human) (Q14116 37-193 V47I/C74A/K89A/C112A/C163A): as the sequence (Q14116 37-193 E42K/K89A/T99A) above, with K6E, V11I, C38A, A63T, C76A, C127A counted along it

[20] = target: C149 (V11I, E31A, C38A, K53A, C76A, C127A) (human) (UniProt Q14116)
Chain of C149 (V11I, E31A, C38A, K53A, C76A, C127A) (human) (Q14116 37-193 V47I/E67A/C74A/K89A/C112A/C163A): as the sequence (Q14116 37-193 E42K/K89A/T99A) above, with K6E, V11I, E31A, C38A, A63T, C76A, C127A counted along it

[21] = target: IL-18 polypeptide SEQ ID NO: 60 (E6K, C38Q, K53A) (human) (UniProt Q14116)
Chain of IL-18 polypeptide SEQ ID NO: 60 (E6K, C38Q, K53A) (human) (Q14116 other isoform, or with tags, fused parts or gaps C38Q K53A C38Q K53A): as the sequence (Q14116 37-193 E42K/K89A/T99A) above, with C38Q, A63T counted along it

[22] = target: C147 (V11I, C38A, K53A, D54A, C76A, C127A) (human) (UniProt Q14116)
Chain of C147 (V11I, C38A, K53A, D54A, C76A, C127A) (human) (Q14116 37-193 V47I/C74A/K89A/D90A/C112A/C163A): as the sequence (Q14116 37-193 E42K/K89A/T99A) above, with K6E, V11I, C38A, D54A, A63T, C76A, C127A counted along it

[23] = target: C152 (V11I, S36A, C38A, K53A, C76A, C127A) (human) (UniProt Q14116)
[24] = target: IL-18 polypeptide SEQ ID NO: 53 (K53A, T63A) (human) (UniProt Q14116)
Chain of IL-18 polypeptide SEQ ID NO: 53 (K53A, T63A) (human) (Q14116 37-193 K89A/T99A): as the sequence (Q14116 37-193 E42K/K89A/T99A) above, with K6E counted along it

[25] = target: IL-18 WT (native sequence, SEQ ID NO: 1) (human) (UniProt Q14116)
Chain of IL-18 WT (native sequence, SEQ ID NO: 1) (human) (Q14116 37-193): as the sequence (Q14116 37-193 E42K/K89A/T99A) above, with K6E, A53K, A63T counted along it

[26] = target: C150 (V11I, T34A, C38A, K53A, C76A, C127A) (human) (UniProt Q14116)
Chain of C150 (V11I, T34A, C38A, K53A, C76A, C127A) (human) (Q14116 37-193 V47I/T70A/C74A/K89A/C112A/C163A): as the sequence (Q14116 37-193 E42K/K89A/T99A) above, with K6E, V11I, T34A, C38A, A63T, C76A, C127A counted along it

[27] = target: C148 (F2A, V11I, C38A, K53A, C76A, C127A) (human) (UniProt Q14116)
Chain of C148 (F2A, V11I, C38A, K53A, C76A, C127A) (human) (Q14116 other isoform, or with tags, fused parts or gaps V11I C38A K53A C76A C127A V11I C38A K53A C76A C127A): as the sequence (Q14116 37-193 E42K/K89A/T99A) above, with F2A, K6E, V11I, C38A, A63T, C76A, C127A counted along it

[28] = target: C164 (V11I, C38A, S55H, C76A, C127A) (human) (UniProt Q14116)
Chain of C164 (V11I, C38A, S55H, C76A, C127A) (human) (Q14116 37-193 V47I/C74A/S91H/C112A/C163A): as the sequence (Q14116 37-193 E42K/K89A/T99A) above, with K6E, V11I, C38A, A53K, S55H, A63T, C76A, C127A counted along it

[29] = target: IL-18 polypeptide SEQ ID NO: 55 (K53A, T63A, C38S, C68S, C76S, C127S, K70C) (human) (UniProt Q14116)
[30] = target: IL-18 polypeptide SEQ ID NO: 43 (E06K, K53A, S55A, Y01G) (human) (UniProt Q14116)
[31] = target: C167 (V11I, C38A, C76A, S105I, C127A) (human) (UniProt Q14116)
[32] = target: IL-18 polypeptide SEQ ID NO: 36 (K53A) (human) (UniProt Q14116)
Chain of IL-18 polypeptide SEQ ID NO: 36 (K53A) (human) (Q14116 37-193 K89A): as the sequence (Q14116 37-193 E42K/K89A/T99A) above, with K6E, A63T counted along it

[33] = target: IL-18 polypeptide SEQ ID NO: 39 (E06K, K53A) (human) (UniProt Q14116)
Chain of IL-18 polypeptide SEQ ID NO: 39 (E06K, K53A) (human) (Q14116 37-193 E42K/K89A): as the sequence (Q14116 37-193 E42K/K89A/T99A) above, with A63T counted along it

[34] = target: IL-18 polypeptide SEQ ID NO: 4 (E6K, C38A, K53A, C68A, M86C) (human) (UniProt Q14116)
Chain of IL-18 polypeptide SEQ ID NO: 4 (E6K, C38A, K53A, C68A, M86C) (human) (Q14116 other isoform, or with tags, fused parts or gaps C38A K53A C68A M86C C38A K53A C68A M86C): as the sequence (Q14116 37-193 E42K/K89A/T99A) above, with C38A, A63T, C68A, M86C counted along it

[35] = target: C159 (V11I, C38A, K53A, C76A, H109A, C127A) (human) (UniProt Q14116)
Chain of C159 (V11I, C38A, K53A, C76A, H109A, C127A) (human) (Q14116 37-193 V47I/C74A/K89A/C112A/H145A/C163A): as the sequence (Q14116 37-193 E42K/K89A/T99A) above, with K6E, V11I, C38A, A63T, C76A, H109A, C127A counted along it

[36] = target: C145 (V11I, C38A, K53A, S55A, C76A, C127A) (human) (UniProt Q14116)
Chain of C145 (V11I, C38A, K53A, S55A, C76A, C127A) (human) (Q14116 37-193 V47I/C74A/K89A/S91A/C112A/C163A): as the sequence (Q14116 37-193 E42K/K89A/T99A) above, with K6E, V11I, C38A, S55A, A63T, C76A, C127A counted along it

Chain of IL-18 polypeptide SEQ ID NO: 52 (E06K, T63A) (human) (Q14116 37-193 E42K/T99A): as the sequence (Q14116 37-193 E42K/K89A/T99A) above, with A53K counted along it
Chain of IL-18 polypeptide SEQ ID NO: 41 (K53A, S55A) (human) (Q14116 37-193 K89A/S91A): as the sequence (Q14116 37-193 E42K/K89A/T99A) above, with K6E, S55A, A63T counted along it
Chain of C155 (V11I, C38A, D40A, K53A, C76A, C127A) (human) (Q14116 37-193 V47I/C74A/D76A/K89A/C112A/C163A): as the sequence (Q14116 37-193 E42K/K89A/T99A) above, with K6E, V11I, C38A, D40A, A63T, C76A, C127A counted along it
Chain of IL-18 polypeptide SEQ ID NO: 42 (E06K, K53A, S55A, T63A) (human) (Q14116 37-193 E42K/K89A/S91A/T99A): as the sequence (Q14116 37-193 E42K/K89A/T99A) above, with S55A counted along it

IC50 (nM), IL-18BPa inhibition of IFNγ induction, NK-92 cells [1]: 47.1 nM
IC50 (nM), IL-18BPa inhibition of IFNγ induction, NK-92 cells [2]: 0.681 nM
IC50 (nM), IL-18BPa inhibition of IFNγ induction, NK-92 cells [3]: 37.3 nM
IC50 (nM), IL-18BPa inhibition of IFNγ induction, NK-92 cells [4]: 1060 nM
IC50 (nM), IL-18BPa inhibition of IFNγ induction, NK-92 cells [5]: > 1000 nM
IC50 (nM), IL-18BPa inhibition of IFNγ induction, NK-92 cells [6]: 0.456 nM
IC50 (nM), IL-18BPa inhibition of IFNγ induction, NK-92 cells [7]: 0.809 nM
IC50 (nM), IL-18BPa inhibition of IFNγ induction, NK-92 cells [8]: > 55 nM
IC50 (nM), IL-18BPa inhibition of IFNγ induction, NK-92 cells [9]: 229 nM
IC50 (nM), IL-18BPa inhibition of IFNγ induction, NK-92 cells [10]: 7.29 nM
IC50 (nM), IL-18BPa inhibition of IFNγ induction, NK-92 cells [11]: 7.85 nM
IC50 (nM), IL-18BPa inhibition of IFNγ induction, NK-92 cells [12]: 5.85 nM
IC50 (nM), IL-18BPa inhibition of IFNγ induction, NK-92 cells [13]: 10.2 nM
IC50 (nM), IL-18BPa inhibition of IFNγ induction, NK-92 cells [14]: 1.62 nM
IC50 (nM), IL-18BPa inhibition of IFNγ induction, NK-92 cells [15]: 3.23 nM
IC50 (nM), IL-18BPa inhibition of IFNγ induction, NK-92 cells [16]: 1.07 nM
IC50 (nM), IL-18BPa inhibition of IFNγ induction, NK-92 cells [17]: 1.81 nM
IC50 (nM), IL-18BPa inhibition of IFNγ induction, NK-92 cells [18]: 961 nM
IC50 (nM), IL-18BPa inhibition of IFNγ induction, NK-92 cells [19]: 7.52 nM
IC50 (nM), IL-18BPa inhibition of IFNγ induction, NK-92 cells [20]: 21.3 nM
IC50 (nM), IL-18BPa inhibition of IFNγ induction, NK-92 cells [21]: 654 nM
IC50 (nM), IL-18BPa inhibition of IFNγ induction, NK-92 cells [22]: 5.05 nM
IC50 (nM), IL-18BPa inhibition of IFNγ induction, NK-92 cells [23]: 2.22 nM
IC50 (nM), IL-18BPa inhibition of IFNγ induction, NK-92 cells [24]: 18.2 nM
IC50 (nM), IL-18BPa inhibition of IFNγ induction, NK-92 cells [25]: 1.47 nM
IC50 (nM), IL-18BPa inhibition of IFNγ induction, NK-92 cells [26]: 3.62 nM
IC50 (nM), IL-18BPa inhibition of IFNγ induction, NK-92 cells [27]: 1.17 nM
IC50 (nM), IL-18BPa inhibition of IFNγ induction, NK-92 cells [28]: 0.885 nM
IC50 (nM), IL-18BPa inhibition of IFNγ induction, NK-92 cells [29]: > 1000 nM
IC50 (nM), IL-18BPa inhibition of IFNγ induction, NK-92 cells [30]: 27.8 nM
IC50 (nM), IL-18BPa inhibition of IFNγ induction, NK-92 cells [31]: 0.176 nM
IC50 (nM), IL-18BPa inhibition of IFNγ induction, NK-92 cells [32]: 27.3 nM
IC50 (nM), IL-18BPa inhibition of IFNγ induction, NK-92 cells [33]: > 703 nM
IC50 (nM), IL-18BPa inhibition of IFNγ induction, NK-92 cells [34]: 396 nM
IC50 (nM), IL-18BPa inhibition of IFNγ induction, NK-92 cells [35]: 3.18 nM
IC50 (nM), IL-18BPa inhibition of IFNγ induction, NK-92 cells [36]: 733 nM
Substance: Fc-fused human IL-18 binding protein isoform a (IL-18BPa) (from UniProt O95998 31-194) (Fc fusion)
